This is an account of results in PMC4660213, “Identification and characterization of multiple rubisco activases in chemoautotrophic bacteria” (Nature Communications, 2015).

Test [1] deals with Acidithiobacillus ferrooxidans CbbQ2 (Acidithiobacillus ferrooxidans ATCC 23270) (UniProt B7J5E4).
Test [2] shares this target. The test is described as follows: quantitative densitometry of SDS-PAGE; Coomassie-stained SDS–PAGE of the purified complexes (4 µg per lane), assuming equal binding of the dye.
Test [3] shares this target. As to the kind of experiment: SEC + other: glycerol gradient sedimentation; combined Stokes radius/sedimentation analysis: Stokes radius from gel filtration, Svedberg coefficient from 5–30% glycerol gradients in buffer A (1 mg/ml, 35,000 r.p.m., 16 h, 4 °C); M=4,205 (SRs).
The target of test [4] is Acidithiobacillus ferrooxidans form I rubisco (L8S8) (Acidithiobacillus ferrooxidans ATCC 23270) (UniProt B7JA24).
Test [5] addresses AfM with E75 mutated to alanine (Acidithiobacillus ferrooxidans ATCC 23270).
Test [6] has as its target Acidithiobacillus ferrooxidans form II rubisco (Acidithiobacillus ferrooxidans ATCC 23270) (UniProt B7J5E3).

Substance “C-terminally truncated CbbO2 (residues 1–444) (domain or fragment)” registered a basal ATPase activity of the Q2O2ΔC444 complex (min^−1 protomer CbbQ^−1) in test [1] below 1. Besides, the stoichiometry N (CbbO fragments per 6 CbbQ subunits) in test [2] stood at 3.5. Further, the stoichiometry N (CbbO fragment per CbbQ hexamer) in test [3] stood at 1.
In turn, “CbbQ1-CbbO1 hetero-oligomer (CbbQ6CbbO1) (complex)” registered a stimulation of Q1O1 ATPase activity (0.27 µM oligomer) by saturating concentrations of stably inhibited AfLS (ER, ECMC) in test [4] of 2 fold.
In test [5], “CbbQ2-CbbO2 hetero-oligomer (CbbQ6CbbO1) (complex)” had a rubisco activase activity of Q2O2 on AfM with E75 mutated to alanine of 80 % reduction. The substance also showed a stimulation of Q2O2 ATPase activity (0.27 µM oligomer) by saturating concentrations of stably inhibited AfM (ER, ECMC) in test [6] of 20 fold.
